Laboratory results taken from patent US20140087995A1 (published 2014).
Numbered stars: 1 amine (or outer) side, 2 acyl side, 3 side chain; on linkers, the order of the positions; unused ones are H or OH. Bridge positions count the residues as written; N and C are the ends. Side chains are listed from the residue outwards. Ends that are not written are not given here. * marks the point of attachment. C20 diacid = O=C(O)CCCCCCCCCCCCCCCCCCC(=O)*; γGlu = O=C(O)[C@H](CCC(=O)[*:2])N[*:1]; AEEA = NCCOCCOCC(=O)O

B1: N^ε1-[2-[2-[2-[[2-[2-[2-[[(4S)-4-carboxy-4-(19-carboxynonadecanoylamino)butanoyl]amino]ethoxy]ethoxy]acetyl]amino]ethoxy]ethoxy]acetyl]-[Arg17,Pro21,Pro27,Glu35 … (peptide)
peptide: K([AEEA-AEEA-γGlu-C20 diacid])CNTATCATQRLANFLRHSSPNFGAIPSSTNVGSETY-NH2
modifications: disulfide 2-7; N-terminus assumed
SMILES: CC[C@H](C)[C@H](NC(=O)[C@H](C)NC(=O)CNC(=O)[C@H](Cc1ccccc1)NC(=O)[C@H](CC(N)=O)NC(=O)[C@@H]1CCCN1C(=O)[C@H](CO)NC(=O)[C@H](CO)NC(=O)[C@H](Cc1c[nH]cn1)NC(=O)[C@H](CCCNC(=N)N)NC(=O)[C@H](CC(C)C)NC(=O)[C@H](Cc1ccccc1)NC(=O)[C@H](CC(N)=O)NC(=O)[C@H](C)NC(=O)[C@H](CC(C)C)NC(=O)[C@H](CCCNC(=N)N)NC(=O)[C@H](CCC(N)=O)NC(=O)[C@@H](NC(=O)[C@H](C)NC(=O)[C@@H]1CSSC[C@H](NC(=O)[C@@H](N)CCCCNC(=O)COCCOCCNC(=O)COCCOCCNC(=O)CC[C@H](NC(=O)CCCCCCCCCCCCCCCCCCC(=O)O)C(=O)O)C(=O)N[C@@H](CC(N)=O)C(=O)N[C@@H]([C@@H](C)O)C(=O)N[C@@H](C)C(=O)N[C@@H]([C@@H](C)O)C(=O)N1)[C@@H](C)O)C(=O)N1CCC[C@H]1C(=O)N[C@@H](CO)C(=O)N[C@@H](CO)C(=O)N[C@H](C(=O)N[C@@H](CC(N)=O)C(=O)N[C@H](C(=O)NCC(=O)N[C@@H](CO)C(=O)N[C@@H](CCC(=O)O)C(=O)N[C@H](C(=O)N[C@@H](Cc1ccc(O)cc1)C(N)=O)[C@@H](C)O)C(C)C)[C@@H](C)O
notes: also called compound 25
B2: N^ε1-[2-[2-[2-[[(4S)-4-carboxy-4-(19-carboxynonadecanoylamino)butanoyl]amino]ethoxy]ethoxy]acetyl]-[Arg17,Pro21,Pro27,Glu35]-h-amylin (peptide)
peptide: K([AEEA-γGlu-C20 diacid])CNTATCATQRLANFLRHSSPNFGAIPSSTNVGSETY-NH2
modifications: disulfide 2-7; N-terminus assumed
SMILES: CC[C@H](C)[C@H](NC(=O)[C@H](C)NC(=O)CNC(=O)[C@H](Cc1ccccc1)NC(=O)[C@H](CC(N)=O)NC(=O)[C@@H]1CCCN1C(=O)[C@H](CO)NC(=O)[C@H](CO)NC(=O)[C@H](Cc1c[nH]cn1)NC(=O)[C@H](CCCNC(=N)N)NC(=O)[C@H](CC(C)C)NC(=O)[C@H](Cc1ccccc1)NC(=O)[C@H](CC(N)=O)NC(=O)[C@H](C)NC(=O)[C@H](CC(C)C)NC(=O)[C@H](CCCNC(=N)N)NC(=O)[C@H](CCC(N)=O)NC(=O)[C@@H](NC(=O)[C@H](C)NC(=O)[C@@H]1CSSC[C@H](NC(=O)[C@@H](N)CCCCNC(=O)COCCOCCNC(=O)CC[C@H](NC(=O)CCCCCCCCCCCCCCCCCCC(=O)O)C(=O)O)C(=O)N[C@@H](CC(N)=O)C(=O)N[C@@H]([C@@H](C)O)C(=O)N[C@@H](C)C(=O)N[C@@H]([C@@H](C)O)C(=O)N1)[C@@H](C)O)C(=O)N1CCC[C@H]1C(=O)N[C@@H](CO)C(=O)N[C@@H](CO)C(=O)N[C@H](C(=O)N[C@@H](CC(N)=O)C(=O)N[C@H](C(=O)NCC(=O)N[C@@H](CO)C(=O)N[C@@H](CCC(=O)O)C(=O)N[C@H](C(=O)N[C@@H](Cc1ccc(O)cc1)C(N)=O)[C@@H](C)O)C(C)C)[C@@H](C)O
notes: also called compound 26

Key:
[1] = molecular target: T1, human amylin receptor (amylin 3(a) receptor: human calcitonin receptor plus RAMP-3) (human, UniProt P30988 25-474; O60896 24-148); test: SPA competition binding, displacement of 125I-rat amylin, membranes of BHK amylin 3(a)/CRE-luc cells
T1 construct: whole, on cells; functional assay (II)a used the whole cells; also called hAmylin-R; hAmylinR
T1 sequence (looked up) 1: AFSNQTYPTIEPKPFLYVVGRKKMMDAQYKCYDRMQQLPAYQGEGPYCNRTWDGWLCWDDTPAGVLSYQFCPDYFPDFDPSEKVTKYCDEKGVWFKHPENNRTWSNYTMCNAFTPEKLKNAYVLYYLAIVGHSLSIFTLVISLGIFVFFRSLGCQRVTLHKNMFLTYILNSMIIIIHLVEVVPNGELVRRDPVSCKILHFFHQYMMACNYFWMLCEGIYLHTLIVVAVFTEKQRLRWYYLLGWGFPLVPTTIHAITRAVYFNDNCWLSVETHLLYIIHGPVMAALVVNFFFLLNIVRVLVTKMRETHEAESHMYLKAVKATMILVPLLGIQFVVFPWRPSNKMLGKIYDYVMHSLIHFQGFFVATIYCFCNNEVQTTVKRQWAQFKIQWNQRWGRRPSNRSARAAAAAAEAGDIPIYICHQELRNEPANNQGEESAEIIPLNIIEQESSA
T1 sequence (looked up) 2: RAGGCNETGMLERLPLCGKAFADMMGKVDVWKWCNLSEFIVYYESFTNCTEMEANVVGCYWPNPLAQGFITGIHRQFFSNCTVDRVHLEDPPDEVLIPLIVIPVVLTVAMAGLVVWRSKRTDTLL
Method: The binding assay was performed using scintillation proximity assay (SPA) beads (RPNQ0001) from PerkinElmer and cell membranes from the Amylin 3(a)/CRE-luc cells (as described in Assay (II)) were used. Membranes were prepared in the following way; the cells were rinsed with PBS and incubated with Versene for approximately 5 min before harvesting. The cells were flushed with PBS and the cell-suspension was centrifuged for 5 min at 1000 rpm. Cells were homogenized (ultrathurrax) in a buffer containing 20 mM Na-HEPES and 10 mM EDTA (pH 7.4) and centrifuged at 20.000 rpm for 15 min. The resulting pellet was resuspended, homogenized and centrifuged (20.000 rpm, 15 min) in a buffer containing 20 mM Na-HEPES and 0.1 mM EDTA (pH 7.4, buffer 2). The resulting pellet was resuspended in buffer 2 and protein concentration was measured (BCA protein Assay, Pierce). The homogenate was kept cold during the whole procedure. The membranes were kept at −80° C. until use. The assay was performed in a 384 well Optiplate (PerkinElmer) in a total volume of 40 ul. Membranes were mixed with SPA beads. Final concentration of membranes 35 ng/μL final and SPA beads was 0.05 mg/well. Test-compounds were dissolved in DMSO and further diluted in assay buffer (50 mM Hepes, pH 7.4, 1 mM CaCl2, 5 mM MgCl₂, 0.1% OA and 0.02% Tween20). […] The final mixture was incubated with shaking at 400 rpm for 120 min at 25° C. prior to centrifugation (1500 rpm, 10 min). Samples were analyzed on TopCounter™ (Packard). The IC₅₀ was calculated using (one site binding competition analysis) GraphPad Prism5 as a measure of receptor affinity.

[2] = molecular target: T1, human amylin receptor (amylin 3(a) …); test: cell-based or functional assay
[3] = molecular target: T2, human calcitonin receptor (human, UniProt P30988 25-474); test: cell-based or functional assay
T2 sequence (looked up): T1 sequence (looked up) 1

Binder	IC50 [1] [nM]	Ratio hCT/hAmylin funct. [2]	hAmylin-R funct. EC50 (pM) [2] [pM]	hCTR funct. EC50 (pM) [3] [pM]
B1	0.768	46.2	217	10000
B2	0.532	29.9	212	6340
